Experimental data from the nanobody polyreactivity screen of Harvey et al. (2022).

test: yeast display, Sf9 membrane polyspecificity reagent, FACS + sequencing; frameworks hold sequencing errors
Procedure, shortened: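 Synthetic nanobody libraries on Saccharomyces cerevisiae BJ5465 were galactose-induced for 36–48 hours, stained 1 hour at 4 °C with 10% biotinylated, detergent-solubilized Sf9 membrane reagent and enriched on streptavidin microbeads. FACS then separated cells into low and high (top ~1%) gates by anti-HA (expression) and streptavidin (reagent binding) fluorescence. Genes were colony-PCR amplified, MiSeq 2 × 250 sequenced and CDR-length filtered. A clone's polyreactivity label is that of its gate of origin.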

Row | Sequence | polyreactivity (PSR sort gate)
1 | QVQLVESGGRLVQAGGSLRLSCAASGLIFRRNAMGWYRQAPGKERELVSAISRSSGSTYYADSVKGRFTISRDYAKNSVYFHMNSLKPDDTAVYYCDAGYRAGPGYGMYSWGQGTQVTVSS | high polyreactivity
2 | QVQLVESGGRLVQAGGSLRLSCAASGLIFYTYAMGWYRKAPGKERELVADINRSDGSTYYADSVKGRFTISRDNAKNTVYLQMNSLKPEDTAVYYCAVVGPYYSRFGGRYYYWGQGTQVTVSS | low polyreactivity
3 | QVQLVESGGRLVQAGGSLRLSCAASGLIIDVNTMGWYRQAPGKDRELVAAITGSGGRTYYADSVKGRFTISRDNAKNTVYLQMNSLKPEDSAVYYCNADTSYVGFDFWGQGTQVTVSS | low polyreactivity
4 | QVQLVESGGRLVQAGGSLRLSCAASGLILLPNTMGWYRQAPGKESEMVAAISYSGGGTYYADSVKARFTISRDNAKNSVYLQMNSLKPEDTAVYYCAAYVKRESAPYGYWGQGTQVTVSS | low polyreactivity
5 | QVQLVESGGRLVQAGGSLRLSCAASGRIFAFYAMGWYRQAPGKERELVAAITSGGSTKYADSVKGRFTISRDNAKNTVYLQMNSLKPEDTAVYYCAAVESGYGSKRFYYWGQGTQVTVSS | high polyreactivity
6 | QVQLVESGGRLVQAGGSLRLSCAASGRIFGDYAMGRYRQAPGKERDLVAAISWSDGSTYYADSVKGRFTISRDNAKNTVYLQMNSLTPEDTAVYYCPAYGWGYRYVDVVVSDFYYWGQGTQVTVSS | low polyreactivity
7 | QVQLVESGGRLVQAGGSLRLSCAASGRIFTQYAMGWYRQSPGKERELVAAINASDGSTYADSVKGRFTSSRDNAQNTVYLQMKRLKPADTAVYYCNVTGGTYDFTRWSEFDHWGQGTQVTVSS | low polyreactivity
8 | QVQLVESGGRLVQAGGSLRLSCAASGRIIGVNAMGWYRQAPGKERELVATITSGGSTYADSVKGRFTISRDNAKNTVYLQMNSLKPEDTAVYFCNALIYKRVTRYPYVRLMDYWGQGTQVTVSS | high polyreactivity
9 | QVQLVESGGRLVQAGGSLRLSCAASGRILYVNNMGWYRQAPGKERELVAGITSRVGSTYYADSVKGRFTISRDNAKNTVYLQMNSLKPEDSAVYYCNARSTWRHRRDQVDFDYWGQGTQVSVSS | low polyreactivity
10 | QVQLVESGGRLVQAGGSLRLSCAASGRTFGYYAKGLSRQAQGKEREFVAAISFRTTSTYYADSVKGRFTISRDNAKNTVYLQMISLKPEDTAVYYCNVVVKGAWDYYPYDYWGQGPQVTVSS | high polyreactivity
11 | QVQLVESGGRLVQAGGSLRLSCAASGRTFIGYARGWYRQAPGKERELVAGISWSGGSTYYADSVKGRFTISRDNAKNTVYLQMNSLKPEDTAVYYCAARGRWSTEYGYWGQGTQVTVSS | low polyreactivity
12 | QVQLVESGGRLVQAGGSLRLSCAASGRTFWFNDMGWYRQAPGKVRQLVAAISDTDGSTYYADSVKGRFTISRDNAKNSVYLQMNSLKPVDTAVYYCAPEAYYGYLYAYDYWGQGTQVTVSS | low polyreactivity
13 | QVQLVESGGRLVQAGGSLRLSCAASGRTFYIYAMGWYRQAPGKERELVADISWSGGSTYYADSVKGRFTISRDNAKNTVYLQMNSLKPEDTAVYYCAADLYVYPNWYLYYYWGQGTQVTVSS | high polyreactivity
14 | QVQLVESGGRLVQAGGSLRLSCAASGSIFAVNAMGWYRQAPGKERELVAAIDWSDGITYYADSVKGRFTISRDNAKNTVYLKMNSLKPEDTALNYCAADATAYGWYVEQFSFYDNDYWGQGTQVTVSS | high polyreactivity
15 | QVQLVESGGRLVQAGGSLRLSCAASGSIFDNYVMGWYRQAPGKERELVAAINSSGGSTYYADSVKGRFTISRDNAKNTVYLQMNSLKPEDTAVYYCIATDGITPYDLTDIEFDYWGQGTQVTVSS | low polyreactivity
16 | QVQLVESGGRLVQAGGSLRLSCAASGSIFLAYDMGWYRQAPGKERELVAGITSVGTTYYADSVKGRFTISRDNAKNTVYFQMNSLKPEDTAVYYCAAQLYIRNHFRYASTAAYDMGYWGQGTQVTVSS | low polyreactivity
17 | QVQLVESGGRLVQAGGSLRLSCAASGSIFYYYAKGLYRKAPVTARELVAAISTRGGRTYYADSVKGRFTISRDNAKTTVYLQMNSLKPEDTAVYYCNVPYYLPSYLSGYDYWGQGTQVTVSS | low polyreactivity
18 | QVQLVESGGRLVQAGGSLRLSCAASGSIINVNTMGWYRQAPGKERELVAAISSGGRTYYADSVKGRFTISRDNAKNTVYLQMNSLKPEDTAVYYCNTVLGVYDYDYWGQGTQVTVSS | low polyreactivity
19 | QVQLVESGGRLVQAGGSLRLSCAASGSTFAVYAMGWYRQAPGKERELVAAINRSGDSTYYADSVKGRFTISRDNAKNTVYLQMNSLKPEDTAVYYCAVSAWTRSHALYYWGQGTQVTVSS | high polyreactivity
20 | QVQLVESGGRLVQAGGSLRLSCAASGSTFGSYTMGWYRQAPGKERELVAAINWSGGNTYYADSVKGRFTISRDYAKNTVYLQMNSLKPEDTAVYFCAAAYYIYGFEGDYWGHGTQVTVSS | low polyreactivity
21 | QVQLVESGGRLVQAGGSLRLSCAASGSTFSYYDMGGYRQAPGKEMELVADISWSGGSTYYADSVKGRFTISRDNAKNTVYLQMNSLKPEDTAVYYCAARGYVRWYNRYDYWGQGTQVTVSS | low polyreactivity
22 | QVQLVESGGRLVQAGGSLRLSCAASGSTINKYAMGWYRQAPGKERELVAAISRSGGSTNYADSVKGRFTISRDNAKNTVYLQMNSLKPEDNAVYYCNRTRYRSFHYDYWGQGTQVTVSS | high polyreactivity

Row | Sequence | polyreactivity (PSR sort gate)
23 | QVQLVESGGRLVQAGGSLRLSCAASGYIFERNAMGWYRPAPGKERELVAAITDDGDDTYYADSVKGRFTISRDNEKNTVYLQLYSLKPEDTAVYYCAKDLYYGDYYYWGQGTQVTVSS | low polyreactivity
24 | QVQLVESGGRLVQAGGSLRLSCAPSGRTFRWYAMGWYRQSPGKERELVAAISRSGGSTYYADSVKGRFTISRDNAKYTVFLQMNILKPEDTAVYYCANVRYDFKLDYWGQGTQVTVSS | high polyreactivity
25 | QVQLVESGGRLVQAGGSLRLSCDASGRTFGKYALGWYRQAPGKEREFVATITRSGDSTYYADSVKGRFTISRDNAKNTVYLQMNSLKPEDTAVYNCAKDTYGVLSYFQVSREYWGQGTQVTVSS | low polyreactivity
26 | QVQLVESGGRLVQAGGSLRLSGAASGRTFAKYAMGWYRQAPGKERELVAAINSSGDSTYYADSVKGRFTISRDNAKNTVYLQMNSLKPEDTAVYYCATRYRSSQWYSPYKYDYWGQGTQVTVSS | low polyreactivity
27 | QVQLVESGGRLVQAGGSLRLSSAASGRIFASNAMGWYRQAPGKERELVAAIDQGGGSTYYADSVKGRFTISRDNAKNTVYLQMNSLKPEDTAVYYCAADYITAYPRLYNYWGQGTQVTVSS | low polyreactivity
28 | QVQLVESGGRLVQAGRSLRLSCAASGSIFHDYAMGWYRQAPGKERELVAVISTSGGSTYYADSVKGRFTISRDNAKNTVYCQMNRLKPEDTAFYYCNARTVGPYPSHAALEYDSWGQGTQVTVSS | low polyreactivity
29 | QVQLVESGGRLVQAVASHRLSCAASGSIFRKYALGCYRQAPGKERELVAAIRSSGGSTYYADSVKGRFTISRDNAKNTVYLQMISLIPEDTAVYYCAARYYRPSRYDYWGQGTQVTVSS | high polyreactivity
30 | QVQLVESGGRLVQSGGSLRLSCAASGFIFSYNAMGLYRQAPGKERELVASIRTRGGSTYYADSVKGRFTISRDNAKNSVYLQMNSLKPEDTAVYYCAARPFQRRYDYWGQGTQVTVST | low polyreactivity
31 | QVQLVESGGRLVQSGGSLRLSCAASGNTFIPNAMGWYRQAPGKERELVAAIRASGGSTYYADSVKGRFTISRDNAKNTVYLQMNSLKPEDTAVYYCNADIWYKTYDYWGQGTQVTVSS | low polyreactivity
32 | QVQLVESGGRLVQSGGSLRLSCAPSGSIFLRNAMGWYRQAPGKEREFVASITWNGASTSYADSVKGRFTISRDYAMNTVYLQMNSLKPEDTAVYFCAAVTVQDSNLKYGYWGQGTQVTVSS | low polyreactivity
33 | QVQLVESGGRVVQAGGILRLRCAGSGSILVHYAMGWYRQAPGKDRELVAAISRGGSTNYADSVKGRFTISRDNAKNTVYLQMNSLKPEDTAVYYCDARRPWGEYYWGQGTQVTVSS | low polyreactivity
34 | QVQLVESGGVLDQAGGSLRLRCAASGSTYYRNAMGWYRQAPGKERELVATINRGGSTYYADSVKWRFTISRDNAKNTVYLQMNSLKPEDPAVYYWAKDPYYAGRYRGDYWGQGTQVTVSS | high polyreactivity
35 | QVQLVESGGVLFQAGGSLSLSCAASGLTFPRYAMGWYRQAPGKESELDAAISYRGSRTYYADSVKGRFTISRDNAKNTVYLQMNSLKPEDTAVYYCNKVRPGYGVTYLVGYWGQGTQVTVSS | high polyreactivity
36 | QVQLVESGGVLLQAGASLRLSCAASGSIIRSYAMGWYRQAPGKERELVASISRRGGSTYYADSVKGRFTISRDNPKNSVFLQMNSLNPVDTADYYCGAVTTSKFNFWGQGTQVTVSS | low polyreactivity
37 | QVQLVESGGVLLQAGGSLRLSCAASGTIQYIKTMGWYRQAPGKERELVAAITYSGGSTYYADSVKGRFTISRDNAKNTVYLQRNSLKPVVTAVYYCAGDGYYGGYNYWGQGTQVTVSS | low polyreactivity
38 | QVQLVESGGVLVQAGGCLRLSCAASGSIFSVNTMGWYRQAPGKERELVATIRTGDSTNYADSVKGRFTISRDNAKNTVYLQMNSLKPEDTAVYYCAAEWSSLNFEYWGQGSQVTVSS | low polyreactivity
39 | QVQLVESGGVLVQAGGRLRLSCAASVFGRYAMGWYRQAPGKEREMVARISSSCGSTHYADSVKGRFTISRDNAKNTVYLEMNSLKPEDTAVYYCAARSYDTYWWYGYWGQGTQVTVSS | high polyreactivity
40 | QVQLVESGGVLVQAGGSIRLSCAASGRIIYKNAMGWYRQAPGKERELVAAITSSGGSTYYADSVKGRFTISRDNAKITVYFQMNSLKPEDTAVYYCAAYAYGRFGKLNYWGQGTQVTVSS | low polyreactivity
41 | QVQLVESGGVLVQAGGSLPLSCAASGSIFGSYAMGWSRQAPGKERELVAAIRWSGGSTRYADSVKGRFTISRDIAKNRVYLHMNSLKPEDTAVYYCAAVWRYLGYTSMDYWGQGTQVTVSS | low polyreactivity
42 | QVQLVESGGVLVQAGGSLRFSCAASGFFFSSNAIGWYRQAPGKERELVAAISRSVGSTYYADSVKGRFTISRDNAKNTVYLQMNSLKPEDTAVYYCAARIGSYRKYRYDYWGQGTQVTVSS | high polyreactivity
43 | QVQLVESGGVLVQAGGSLRLSCAASEIIFTFYAMAWYRQAPGKEMELVAAITSSGGRTYYADSVKGRFTISRDNAKNTVYLQMNSLKPEDTAVYYCAARLPGYVRKYDYWGQGTQVTVSW | high polyreactivity
